Tests used:
HERC5 HECT domain [1] = target: HERC5 HECT domain (UniProt Q9UII4); test: SAXS
HERC5 HECT domain [2] = target: HERC5 HECT domain (UniProt Q9UII4); test: SEC

HERC5 HECT domain, sequence (Q9UII4 702-1024): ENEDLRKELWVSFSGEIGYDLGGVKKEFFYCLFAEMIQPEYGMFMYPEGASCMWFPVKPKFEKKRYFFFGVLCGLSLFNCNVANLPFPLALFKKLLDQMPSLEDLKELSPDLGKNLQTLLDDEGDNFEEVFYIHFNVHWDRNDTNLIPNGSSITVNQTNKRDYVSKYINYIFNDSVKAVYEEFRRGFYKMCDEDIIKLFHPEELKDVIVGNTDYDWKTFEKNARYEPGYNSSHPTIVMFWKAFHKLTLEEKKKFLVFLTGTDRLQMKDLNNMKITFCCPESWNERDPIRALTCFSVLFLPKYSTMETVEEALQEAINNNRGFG

stoichiometry N (HERC5 HECT domain [1]): 3 | stoichiometry N (HERC5 HECT domain [2]): 3
Substance: HERC5 HECT domain (from UniProt Q9UII4 702-1024) (domain or fragment)

From doi:10.1101/2025.03.22.644726
